Measured values as given in article PMC10575957.
Each block holds one substance with its values, some of them ahead of it.

Legend:
Assay in all cases: cryo-EM structure; portal-tail complex of the native P-SCSP1u virion, symmetry-mismatch reconstruction, C6 symmetry, 3.8 Å; virions in SM buffer
[1] = target: P-SCSP1u nozzle protein (gp23) (cyanophage P-SCSP1u)
[2] = target: P-SCSP1u fiber protein (gp28) (cyanophage P-SCSP1u)
[3] = target: P-SCSP1u adaptor protein (gp22) (cyanophage P-SCSP1u)
[4] = target: P-SCSP1u portal protein (gp16) (cyanophage P-SCSP1u)

- stoichiometry N [1]: 6
Substance: P-SCSP1u nozzle protein (gp23) (natural protein)

- stoichiometry N [2]: 3
Substance: P-SCSP1u fiber protein (gp28) (natural protein)

- stoichiometry N [3]: 12
Substance: P-SCSP1u adaptor protein (gp22) (natural protein)

- stoichiometry N [4]: 12
Substance: P-SCSP1u portal protein (gp16) (natural protein)
